Experimental data reported in patent US20250011421A1 (GUANGDONG ANNPO BIOTECHNOLOGY, published 2025).

T1: hTIGIT on the surface of 293F-hTIGIT-short #1B1 cells (human, UniProt Q495A1 22-162, limits assumed)
T1 construct: domain: extracellular domain and transmembrane domain; It is a truncated ('short') construct without the cytoplasmic part; also called 293F-hTIGIT-short cells; 293F-hTIGIT-short #1B1 cell line
T1 sequence (looked up): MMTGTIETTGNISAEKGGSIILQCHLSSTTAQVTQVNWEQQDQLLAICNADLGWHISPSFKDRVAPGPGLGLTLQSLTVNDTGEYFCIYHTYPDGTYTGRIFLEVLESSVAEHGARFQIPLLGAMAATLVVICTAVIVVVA

T2: hTIGIT-His protein (human, UniProt Q495A1 22-141)
T2 construct: Coated on the ELISA plate at 0.5 µg/mL; also called antigen hTIGIT-his protein; not shown: His tag
T2 sequence (looked up): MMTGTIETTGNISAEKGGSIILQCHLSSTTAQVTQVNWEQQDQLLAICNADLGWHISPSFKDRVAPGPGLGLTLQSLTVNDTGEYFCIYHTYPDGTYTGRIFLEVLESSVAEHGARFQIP

T3: mouse-derived TIGIT protein (accession number: NP_001139797.1) (mouse, UniProt P86176 29-148, limits assumed)
T3 construct: also called mouse TIGIT
T3 sequence (looked up): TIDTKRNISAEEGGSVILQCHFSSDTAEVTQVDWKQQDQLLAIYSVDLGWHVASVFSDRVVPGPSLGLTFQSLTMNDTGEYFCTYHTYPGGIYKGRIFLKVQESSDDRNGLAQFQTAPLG

B1: hTIGIT humanized antibody h51C1 (antibody, human IgG1, V domains shown)
VH: QVQLVQSGAEVKKPGASVKVSCKASGYTFTEYFIHWVRQAPGQGLEWIGWFYPGSGSIKYNERFKDRVTLTADTSISTAYMELSRLRSDDTAVYYCARHEMRYGNYVLDYWGQGTTVTVSS
VL: QAVVTQEPSLTVSPGGTVTLTCRSSTGAVTTRNYANWVQQKPGQAPRGLIGGTNNRVPGVPARFSGSLLGGKAALTLSGAQPEDEAEYYCGLWYSNHLVFGGGTKLTVLG
notes: also called 51C1-H2L2
B2: hTIGIT mouse-derived antibody m51C1 (antibody, V domains shown)
VH: QVQLQQSGAELVKPGASVKLSCKASGYTFTEYFIHWIKQKSGQGLEWIGWFYPGSGSIKYNERFKDKATLTADKSSSTVYMELSRLTSEDSAVYFCARHEMRYGNYVLDYWGQGTTLTVSS
VL: QAVVTQESALTTSPGETVTLTCRSSTGAVTTRNYANWVQEKPDHLFTGLIGGTNNRVPGVPARFSGSLIGDKAALTITGAQTEDEAIYFCGLWYSNHLVFGGGTKLTVLG
notes: Mouse monoclonal antibody from a hybridoma
B3: hTIGIT humanized antibody h60H5 (antibody, human IgG1, V domains shown)
VH: QVQLVQSGAEVKKPGASVKVSCKTSGYTFTEYTMHWVRQAPGQRLEWIGGINPNNGGTSYNQKFQGRVTITVDTSASTAYMELSSLRSEDTAVYYCARSGNWDYAMDYWGQGTTVTVSS
VL: DIQMTQSPSSMSASVGDRVTITCKASQHVSTAVVWYQQKPGKAPKLLIYSASYRYTGVPDRFSGSGSGTDFTFTISSLQPEDIATYYCQQHYITPWTFGGGTKLEIKR
notes: also called 60H5-H2L1

Experiments:
[1] = molecular target: T1, hTIGIT on the surface of …; experiment: flow cytometry competition on 293F-hTIGIT-short cells; competitor PVR (method as in Example 4)
Method: According to 50 μL/tube, 20×10⁴ cells were added into 1.5 mL EP tubes. […] 100 μL of PBS was added into the blank group. Gentle blowing and mixing were performed, and incubation was then performed on ice for 1 hour. After incubation, 500 μL of PBS was added for centrifugal washing once, centrifugation was performed at 2000 rpm for 5 minutes, and the supernatants were discarded. […] After 30 minutes of incubation, signal detection was performed with a flow cytometer.

[2] = molecular target: T1, hTIGIT on the surface of …; experiment: flow cytometry on cells expressing hTIGIT, method as in Example 3
Method: (§1) The 293F-hTIGIT-short #1B1 cell line was digested, terminated, centrifuged, resuspended and counted, and the cell density was adjusted to 4×10⁶ cells/mL. According to 50 μL/tube, 20×10⁴ cells were added into 1.5 mL EP tubes. […] The blank group was added with 150 μL of PBS as a blank control. Gentle blowing and mixing were performed, and incubation was performed on ice for 1 hour. After incubation, 500 μL of PBS was added for centrifugal washing once, centrifugation was performed at 2000 rpm for 5 minutes, and the supernatants were discarded. A fluorescent secondary antibody was added (Alexa® 488 fluorescently labeled anti-mouse IgG antibody was diluted with PBS (diluted at 1:500) and added to the corresponding tubes in 200 μL/tube), gentle blowing and mixing were performed, and incubation was performed on ice in the dark for 30 minutes. After 30 minutes of incubation, signal detection was performed with a flow cytometer.
The method was the same as that in example 3.

[3] = molecular target: T2, hTIGIT-His protein; experiment: ELISA on hTIGIT-His, method as in Example 3
Method: (§2) The hTIGIT-his protein was diluted to 0.5 μg/mL with CBS buffer, coated in an ELISA plate in 50 μL/well, and left at 4° C. overnight. The plate was washed with PBST buffer for three times, 200 μL/well, and patted dry. 1% of BSA (dissolved in PBS) was then added, 200 μL/well, and the plate was incubated at 37° C. for 2 hours. After incubation, the plate was washed with PBST for three times, 200 μL/well, and patted dry. […] 100 μL was sucked with a multi-channel pipette, transferred into the ELISA plate, and incubated at 37° C. for 1 hour. After incubation, the plate was washed with PBST for three times, 200 μL/well, and patted dry. An anti-mouse IgG antibody labeled by HRP was diluted with 1% of BSA (dissolved in PBST) (diluted at 1:5000), 100 μL/well. Incubation was performed at 37° C. for 1 hour. After incubation, the plate was washed with PBST for three times, 200 μL/well, and patted dry. 50 μL of TMB chromogen solution was added into each well for chromogenic reaction, and the reaction time was 5 minutes in the dark. After 5 minutes of incubation, hydrochloric acid stop solution was directly added to stop the reaction in 50 μL/well. Absorbances at 450 nm (OD450) were detected by the light absorption mode of a microplate reader.

[4] = molecular target: T2, hTIGIT-His protein; experiment: ELISA, hTIGIT-His coated at 0.5 µg/mL
Method: as §2

[5] = molecular target: T1, hTIGIT on the surface of …; experiment: flow cytometry on 293F-hTIGIT-short #1B1 cells
Method: as §1

[6] = molecular target: T3, mouse-derived TIGIT protein (accession …); experiment: indirect ELISA, method as in Example 3
Method: as §2, with “The” for “The hTIGIT-his protein was diluted to 0.5 μg/mL with CBS buffer, coated in an ELISA plate in 50 μL/well, and left at 4° C. overnight. The”

[7] = molecular target: T1, hTIGIT on the surface of …; experiment: flow cytometry competition on 293F-hTIGIT-short #1B1 cells; competitor PVR-hFc at 6 µg/mL
Method: The 293F-hTIGIT-short #1B1 cell line was digested, terminated, centrifuged, resuspended and counted, and the cell density was adjusted to 4×10⁶ cells/mL. According to 50 μL/tube, 20×10⁴ cells were added into 1.5 mL EP tubes. […] 100 μL of PBS was added into the blank group. Gentle blowing and mixing were performed, and incubation was then performed on ice for 1 hour. After incubation, 500 μL of PBS was added for centrifugal washing once, centrifugation was performed at 2000 rpm for 5 minutes, and the supernatants were discarded. Alexa® 488 fluorescently labeled anti-mouse or anti-human IgG antibody was diluted with PBS (diluted at 1:500) and added to the corresponding tubes in 200 μL/tube, gentle blowing and mixing were performed, and incubation was performed on ice in the dark for 30 minutes. After 30 minutes of incubation, signal detection was performed with a flow cytometer.

[8] = molecular target: T1, hTIGIT on the surface of …; experiment: flow cytometry competition on 293F-hTIGIT-short #1B1 cells; competitor 4.1D3 at 6 µg/mL, detected with anti-human IgG
Method: Cells were collected and counted. […] Seven concentrations were obtained by gradient dilution in 1:3, and added into the corresponding tubes in 50 μL/tube. […] After incubation, 500 μL of PBS was added for centrifugal washing once, centrifugation was performed at 1000 rpm for 5 minutes, and the supernatants were discarded. […] After 30 minutes of incubation, they were loaded for assay. The samples were loaded for assay by using a flow cytometer.

| Binder | IC50 [1] [µg/mL] | EC50 [2] [µg/mL] | EC50 [3] [µg/mL] | EC50 [4] [µg/mL] | EC50 [5] [µg/mL] | binding result [6] | IC50 [7] [µg/mL] | IC50 [8] [µg/mL] |
| --- | --- | --- | --- | --- | --- | --- | --- | --- |
| B1 | 5.21 | 2.98 | 0.007 |  |  |  |  |  |
| B2 |  |  |  | 0.00396 | 0.811 | no binding | 1.35 | 4.08 |
| B3 | 2 | 1.57 | 0.006 |  |  |  |  |  |
